Assay results taken from PMC314469, “Protein Interaction Networks by Proteome Peptide Scanning” (PLoS Biology, 2004).

Key:
Experiment in all cases: SPOT array
[1] = target: T1, Boi1 SH3 (BOI1_YEAST), P38041
T1 chain: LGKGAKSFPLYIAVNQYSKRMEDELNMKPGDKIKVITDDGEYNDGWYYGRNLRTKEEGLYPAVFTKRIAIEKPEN

[2] = target: T2, Boi2 SH3 (BOI2_YEAST), P39969
T2 chain: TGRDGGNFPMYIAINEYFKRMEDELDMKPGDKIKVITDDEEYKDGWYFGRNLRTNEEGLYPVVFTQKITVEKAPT

[3] = target: T3, Rvs167 SH3 (RV167_YEAST), P39743
T3 chain: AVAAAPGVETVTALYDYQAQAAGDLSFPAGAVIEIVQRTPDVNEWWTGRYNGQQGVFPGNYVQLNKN

[4] = target: T4, Yfr024 SH3 (LSB3_YEAST), P43603
T4 chain: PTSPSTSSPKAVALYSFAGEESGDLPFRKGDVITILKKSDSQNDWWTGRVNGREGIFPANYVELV

[5] = target: T5, Yhr016c SH3 (YSC84_YEAST), P32793
T5 chain: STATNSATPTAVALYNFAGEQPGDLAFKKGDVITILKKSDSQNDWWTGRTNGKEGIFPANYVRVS

RSSPWSPSRSHGAV [YLR169W 91-104] gave a normalised SPOT signal, Boehringer light units (BLU); mean over the file's lines of this peptide [1] of 147, a normalised SPOT signal, Boehringer light units (BLU); mean over the file's lines of this peptide [2] of 92.9 and a normalised SPOT signal, Boehringer light units (BLU); mean over the file's lines of this peptide [3] of 117. The normalised SPOT signal, Boehringer light units (BLU); mean over the file's lines of this peptide [4] was 2360 and the normalised SPOT signal, Boehringer light units (BLU); mean over the file's lines of this peptide [5] was 1090.

QTSPGQPRKGQNGS [YFR028C 427-440] gave a normalised SPOT signal, Boehringer light units (BLU); mean over the file's lines of this peptide [1] of 157, a normalised SPOT signal, Boehringer light units (BLU); mean over the file's lines of this peptide [2] of 22.6 and a normalised SPOT signal, Boehringer light units (BLU); mean over the file's lines of this peptide [3] of 64. For the same binder, the normalised SPOT signal, Boehringer light units (BLU); mean over the file's lines of this peptide [4] was 118 and the normalised SPOT signal, Boehringer light units (BLU); mean over the file's lines of this peptide [5] was 177.

RAVPILPPRNNVEP [YBR108W 543-556] gave a normalised SPOT signal, Boehringer light units (BLU); mean over the file's lines of this peptide [1] of 49.7, a normalised SPOT signal, Boehringer light units (BLU); mean over the file's lines of this peptide [2] of 77 and a normalised SPOT signal, Boehringer light units (BLU); mean over the file's lines of this peptide [3] of 59500. For the same binder, the normalised SPOT signal, Boehringer light units (BLU); mean over the file's lines of this peptide [4] was 38300 and the normalised SPOT signal, Boehringer light units (BLU); mean over the file's lines of this peptide [5] was 33600.

With QYYPEEPTKPTVKT [YGR019W 6-19] the normalised SPOT signal, Boehringer light units (BLU); mean over the file's lines of this peptide [1] was 55.2, the normalised SPOT signal, Boehringer light units (BLU); mean over the file's lines of this peptide [2] was 37.2 and the normalised SPOT signal, Boehringer light units (BLU); mean over the file's lines of this peptide [3] was 6.4. The normalised SPOT signal, Boehringer light units (BLU); mean over the file's lines of this peptide [4] was 49.9 and the normalised SPOT signal, Boehringer light units (BLU); mean over the file's lines of this peptide [5] was 85.8.

In the case of RIVPAIPKKATVDE [YNL064C 356-369], the normalised SPOT signal, Boehringer light units (BLU); mean over the file's lines of this peptide [1] is reported as 92.7, the normalised SPOT signal, Boehringer light units (BLU); mean over the file's lines of this peptide [2] is reported as 27.5 and the normalised SPOT signal, Boehringer light units (BLU); mean over the file's lines of this peptide [3] is reported as 10900. The normalised SPOT signal, Boehringer light units (BLU); mean over the file's lines of this peptide [4] was 13100 and the normalised SPOT signal, Boehringer light units (BLU); mean over the file's lines of this peptide [5] was 3320.

In the case of RGIPARPSKDDVMK [YPL073C 83-96], the normalised SPOT signal, Boehringer light units (BLU); mean over the file's lines of this peptide [1] is reported as 55, the normalised SPOT signal, Boehringer light units (BLU); mean over the file's lines of this peptide [2] is reported as 14.7 and the normalised SPOT signal, Boehringer light units (BLU); mean over the file's lines of this peptide [3] is reported as 1080. It also gave a normalised SPOT signal, Boehringer light units (BLU); mean over the file's lines of this peptide [4] of 7220 and a normalised SPOT signal, Boehringer light units (BLU); mean over the file's lines of this peptide [5] of 880.

RLIPTSPQKTNINT [YGR146C 14-27] showed a normalised SPOT signal, Boehringer light units (BLU); mean over the file's lines of this peptide [1] of 52.5, a normalised SPOT signal, Boehringer light units (BLU); mean over the file's lines of this peptide [2] of 30.1 and a normalised SPOT signal, Boehringer light units (BLU); mean over the file's lines of this peptide [3] of 73.9. For the same binder, the normalised SPOT signal, Boehringer light units (BLU); mean over the file's lines of this peptide [4] was 547 and the normalised SPOT signal, Boehringer light units (BLU); mean over the file's lines of this peptide [5] was 197.

RGPPPLPPRANVQP [YLR144C 22-35] showed a normalised SPOT signal, Boehringer light units (BLU); mean over the file's lines of this peptide [1] of 3000, a normalised SPOT signal, Boehringer light units (BLU); mean over the file's lines of this peptide [2] of 14.3 and a normalised SPOT signal, Boehringer light units (BLU); mean over the file's lines of this peptide [3] of 18300. It also gave a normalised SPOT signal, Boehringer light units (BLU); mean over the file's lines of this peptide [4] of 25900 and a normalised SPOT signal, Boehringer light units (BLU); mean over the file's lines of this peptide [5] of 33400.

With RMIPELPPKRIGSQ [YMR004W 190-203] the normalised SPOT signal, Boehringer light units (BLU); mean over the file's lines of this peptide [1] was 366, the normalised SPOT signal, Boehringer light units (BLU); mean over the file's lines of this peptide [2] was 201 and the normalised SPOT signal, Boehringer light units (BLU); mean over the file's lines of this peptide [3] was 4880. For the same binder, the normalised SPOT signal, Boehringer light units (BLU); mean over the file's lines of this peptide [4] was 34800 and the normalised SPOT signal, Boehringer light units (BLU); mean over the file's lines of this peptide [5] was 19200.

RHRPQKPVRTVIYT [YOL164W 148-161] gave a normalised SPOT signal, Boehringer light units (BLU); mean over the file's lines of this peptide [1] of 101, a normalised SPOT signal, Boehringer light units (BLU); mean over the file's lines of this peptide [2] of 62.7 and a normalised SPOT signal, Boehringer light units (BLU); mean over the file's lines of this peptide [3] of 48.3. For the same binder, the normalised SPOT signal, Boehringer light units (BLU); mean over the file's lines of this peptide [4] was 3300 and the normalised SPOT signal, Boehringer light units (BLU); mean over the file's lines of this peptide [5] was 90.2.

With RGTPANPGRVATLI [YER163C 47-60] the normalised SPOT signal, Boehringer light units (BLU); mean over the file's lines of this peptide [1] was 147, the normalised SPOT signal, Boehringer light units (BLU); mean over the file's lines of this peptide [2] was 0 and the normalised SPOT signal, Boehringer light units (BLU); mean over the file's lines of this peptide [3] was 48.8. It also gave a normalised SPOT signal, Boehringer light units (BLU); mean over the file's lines of this peptide [4] of 146 and a normalised SPOT signal, Boehringer light units (BLU); mean over the file's lines of this peptide [5] of 199.

RIPPTVPSKIIDVV [YGR198W 7-20] was tested, and the normalised SPOT signal, Boehringer light units (BLU); mean over the file's lines of this peptide [1] was 43.1, the normalised SPOT signal, Boehringer light units (BLU); mean over the file's lines of this peptide [2] was 22.2 and the normalised SPOT signal, Boehringer light units (BLU); mean over the file's lines of this peptide [3] was 44.9. For the same binder, the normalised SPOT signal, Boehringer light units (BLU); mean over the file's lines of this peptide [4] was 618 and the normalised SPOT signal, Boehringer light units (BLU); mean over the file's lines of this peptide [5] was 158.

Work on QTYPAQPPKIGNAF [YMR016C 219-232] yielded a normalised SPOT signal, Boehringer light units (BLU); mean over the file's lines of this peptide [1] of 42.7, a normalised SPOT signal, Boehringer light units (BLU); mean over the file's lines of this peptide [2] of 35.1 and a normalised SPOT signal, Boehringer light units (BLU); mean over the file's lines of this peptide [3] of 33.9. It also gave a normalised SPOT signal, Boehringer light units (BLU); mean over the file's lines of this peptide [4] of 117 and a normalised SPOT signal, Boehringer light units (BLU); mean over the file's lines of this peptide [5] of 263.

RKRPAPPKKKAPST [YFR013W 82-95] was tested, and the normalised SPOT signal, Boehringer light units (BLU); mean over the file's lines of this peptide [1] was 192, the normalised SPOT signal, Boehringer light units (BLU); mean over the file's lines of this peptide [2] was 39.9 and the normalised SPOT signal, Boehringer light units (BLU); mean over the file's lines of this peptide [3] was 59.3. It also gave a normalised SPOT signal, Boehringer light units (BLU); mean over the file's lines of this peptide [4] of 840 and a normalised SPOT signal, Boehringer light units (BLU); mean over the file's lines of this peptide [5] of 45.5.

RAPPPVPKKPSSRI [YIR003W 387-400] showed a normalised SPOT signal, Boehringer light units (BLU); mean over the file's lines of this peptide [1] of 129, a normalised SPOT signal, Boehringer light units (BLU); mean over the file's lines of this peptide [2] of 42 and a normalised SPOT signal, Boehringer light units (BLU); mean over the file's lines of this peptide [3] of 29.1. The normalised SPOT signal, Boehringer light units (BLU); mean over the file's lines of this peptide [4] was 28900 and the normalised SPOT signal, Boehringer light units (BLU); mean over the file's lines of this peptide [5] was 501.

QVPPKSPEKSGWLY [YNL257C 304-317] showed a normalised SPOT signal, Boehringer light units (BLU); mean over the file's lines of this peptide [1] of 11.9, a normalised SPOT signal, Boehringer light units (BLU); mean over the file's lines of this peptide [2] of 22.9 and a normalised SPOT signal, Boehringer light units (BLU); mean over the file's lines of this peptide [3] of 23.7. The normalised SPOT signal, Boehringer light units (BLU); mean over the file's lines of this peptide [4] was 0 and the normalised SPOT signal, Boehringer light units (BLU); mean over the file's lines of this peptide [5] was 117.

RLLPSWPKRGFSLL [YIL047C 210-223] gave a normalised SPOT signal, Boehringer light units (BLU); mean over the file's lines of this peptide [1] of 69.4, a normalised SPOT signal, Boehringer light units (BLU); mean over the file's lines of this peptide [2] of 251 and a normalised SPOT signal, Boehringer light units (BLU); mean over the file's lines of this peptide [3] of 719. For the same binder, the normalised SPOT signal, Boehringer light units (BLU); mean over the file's lines of this peptide [4] was 10700 and the normalised SPOT signal, Boehringer light units (BLU); mean over the file's lines of this peptide [5] was 1130.

For RFNPAIPLRIYLKT [YLR073C 15-28], the normalised SPOT signal, Boehringer light units (BLU); mean over the file's lines of this peptide [1] was 66.6, the normalised SPOT signal, Boehringer light units (BLU); mean over the file's lines of this peptide [2] was 38.4 and the normalised SPOT signal, Boehringer light units (BLU); mean over the file's lines of this peptide [3] was 116. For the same binder, the normalised SPOT signal, Boehringer light units (BLU); mean over the file's lines of this peptide [4] was 3040 and the normalised SPOT signal, Boehringer light units (BLU); mean over the file's lines of this peptide [5] was 846.

REEPPLPKRIRISK [YKL214C 57-70] was tested, and the normalised SPOT signal, Boehringer light units (BLU); mean over the file's lines of this peptide [1] was 2310, the normalised SPOT signal, Boehringer light units (BLU); mean over the file's lines of this peptide [2] was 65.9 and the normalised SPOT signal, Boehringer light units (BLU); mean over the file's lines of this peptide [3] was 11800. For the same binder, the normalised SPOT signal, Boehringer light units (BLU); mean over the file's lines of this peptide [4] was 49100 and the normalised SPOT signal, Boehringer light units (BLU); mean over the file's lines of this peptide [5] was 50200.

RFDPKSPTKRSIAI [YMR129W 524-537] was tested, and the normalised SPOT signal, Boehringer light units (BLU); mean over the file's lines of this peptide [1] was 129, the normalised SPOT signal, Boehringer light units (BLU); mean over the file's lines of this peptide [2] was 62 and the normalised SPOT signal, Boehringer light units (BLU); mean over the file's lines of this peptide [3] was 40. For the same binder, the normalised SPOT signal, Boehringer light units (BLU); mean over the file's lines of this peptide [4] was 321 and the normalised SPOT signal, Boehringer light units (BLU); mean over the file's lines of this peptide [5] was 71.9.

In the case of QYIPPPPPKYINSK [YDR207C 482-495], the normalised SPOT signal, Boehringer light units (BLU); mean over the file's lines of this peptide [1] is reported as 122, the normalised SPOT signal, Boehringer light units (BLU); mean over the file's lines of this peptide [2] is reported as 45.9 and the normalised SPOT signal, Boehringer light units (BLU); mean over the file's lines of this peptide [3] is reported as 112. For the same binder, the normalised SPOT signal, Boehringer light units (BLU); mean over the file's lines of this peptide [4] was 393 and the normalised SPOT signal, Boehringer light units (BLU); mean over the file's lines of this peptide [5] was 81.6.

RDKPSEPERTKDGS [YJL184W 49-62] gave a normalised SPOT signal, Boehringer light units (BLU); mean over the file's lines of this peptide [1] of 74.9, a normalised SPOT signal, Boehringer light units (BLU); mean over the file's lines of this peptide [2] of 27.8 and a normalised SPOT signal, Boehringer light units (BLU); mean over the file's lines of this peptide [3] of 24.1. The normalised SPOT signal, Boehringer light units (BLU); mean over the file's lines of this peptide [4] was 112 and the normalised SPOT signal, Boehringer light units (BLU); mean over the file's lines of this peptide [5] was 120.
